Test results reported in PMC5497220 (2017).
Where no end group is shown, it is not given here.

Target: T1, Histone H3 (4-10) K9ac peptide 4-10 (Homo sapiens, UniProt P68431, not fully specified (residue 7))
T1 chain: TKQTARK
Assay: ITC

B1: ENL (protein)
chain: MDNQCTVQVRLELGHRAQLRKKPTTEGFTHDWMVFVRGPEQCDIQHFVEKVVFWLHDSFPKPRRVCKEPPYKVEESGYAGFIMPIEVHFKNKEEPRKVCFTYDLFLNLEGNPPVNHLRCEKLTFNNPTTEFRYKLLRAGGVMVMPEGADTVSRPSPDYPMLPTIPLSAFSDPKKTKPSHGSKDANKESSKTSKPHKVTKEHRERPRKDSESKSSSKELEREQAKSSKDTSRKLGEGRLPKEEKAPPPKAAFKEPKMALKETKLESTSPKGGPPPPPPPPPRASSKRPATADSPKPSAKKQKKSSSKGSRSAPGTSPRTSSSSSFSDKKPAKDKSSTRGEKVKAESEPREAKKALEVEESNSEDEASFKSESAQSSPSNSSSSSDSSSDSDFEPSQNHSQGPLRSMVEDLQSEESDEDDSSSGEEAAGKTNPGRDSRLSFSDSESDNSADSSLPSREPPPPQKPPPPNSKVSGRRSPESCSKPEKILKKGTYDKAYTDELVELHRRLMALRERNVLQQIVNLIEETGHFNVTNTTFDFDLFSLDETTVRKLQSCLEAVAT
- Kd: 30.1 µM
